Results as given in the supplement of paper PMC10567573.

B1: KRT15 (parent)
chain: FGGGSTRGGSLLAGGGGFGGGSLS
B2: IQUB (parent)
chain: CRNCINLQNEAQKRESFLKYKCLL

Variants of: B1
Test: protein stability index of a GFP-peptide fusion (GPS, HEK-293T) (PSI 1-6); higher = more stable
Details: c terminus: a fixed tail appended
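Further: lentivirally expressed fusions sorted by FACS into six bins by GFP to DsRed ratio, PSI derived from sequencing read proportions per bin multiplied by bin number.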

| Variant | protein stability index |
| --- | --- |
| KGGGSTRGGSLLAGGGGFGGGSLS | 4.35 |
| IGGGSTRGGSLLAGGGGFGGGSLS | 2.53 |

Variants of: B2
Test: as above
Details: c terminus: a fixed tail appended

| Variant | protein stability index |
| --- | --- |
| CRNCINLQNEAQKRESTLKYKCLL | 2.74 |
| CRNCINLQNEAQKRESMLKYKCLL | 1.58 |
| CRNCINLQNEAQKRESWLKYKCLL | 1.58 |
| CRNCINLQNEAQKRESPLKYKCLL | 2.33 |
| CRNCINLQNEAQKRESDLKYKCLL | 2.45 |
| CRNCINLQNEAQKRESALKYKCLL | 2.02 |
| CRNCINLQNEAQKRESGLKYKCLL | 2.84 |
| CRNCINLQNEAQKRESKLKYKCLL | 2.33 |
| CRNCINLQNEAQKRESCLKYKCLL | 2.13 |
| CRNCINLQNEAQKRESQLKYKCLL | 1.5 |
| CRNCINLQNEAQKRESYLKYKCLL | 1.59 |
| CRNCINLQNEAQKRESRLKYKCLL | 2.65 |
| CRNCINLQNEAQKRESSLKYKCLL | 2.08 |
| CRNCINLQNEAQKRESNLKYKCLL | 2.22 |
| CRNCINLQNEAQKRESHLKYKCLL | 1.68 |
| CRNCINLQNEAQKRESILKYKCLL | 1.79 |
| CRNCINLQNEAQKRESELKYKCLL | 2.6 |
| CRNCINLQNEAQKRESVLKYKCLL | 2.25 |
| CRNCINLQNEAQKRESLLKYKCLL | 1.77 |
| CRNCINLQNEAQKRESFLKYKCML | 1.77 |
| CRNCINLQNEAQKRESFLKYKCAL | 1.5 |
| CRNCINLQNEAQKRESFLKYKCQL | 1.87 |
| CRNCINLQNEAQKRESFLKYKCEL | 1.75 |

| Variant | protein stability index |
| --- | --- |
| CRNCINLQNEAQKRESFLKYKCSL | 2.18 |
| CRNCINLQNEAQKRESFLKYKCDL | 2.7 |
| CRNCINLQNEAQKRESFLKYKCIL | 2.25 |
| CRNCINLQNEAQKRESFLKYKCCL | 2.98 |
| CRNCINLQNEAQKRESFLKYKCRL | 2.17 |
| CRNCINLQNEAQKRESFLKYKCVL | 3.23 |
| CRNCINLQNEAQKRESFLKYKCGL | 2.03 |
| CRNCINLQNEAQKRESFLKYKCYL | 2.05 |
| CRNCINLQNEAQKRESFLKYKCPL | 2.69 |
| CRNCINLQNEAQKRESFLKYKCNL | 2.12 |
| CRNCINLQNEAQKRESFLKYKCWL | 2.21 |
| CRNCINLQNEAQKRESFLKYKCTL | 1.97 |
| CRNCINLQNEAQKRESFLKYKCFL | 2.53 |
| CRNCINLQNEAQKRESFLKYKCHL | 1.6 |
| CRNCINLQNEAQKRASFLKYKCLL | 2.85 |
| CRNCINLQNEAQKRSSFLKYKCLL | 2.3 |
| CRNCINLQNEAQKRCSFLKYKCLL | 1.47 |
| CRNCINLQNEAQKRPSFLKYKCLL | 2.05 |
| CRNCINLQNEAQKRHSFLKYKCLL | 2.75 |
| CRNCINLQNEAQKRNSFLKYKCLL | 2.51 |
| CRNCINLQNEAQKRWSFLKYKCLL | 1.62 |
| CRNCINLQNEAQKRQSFLKYKCLL | 2.01 |
| CRNCINLQNEAQKRMSFLKYKCLL | 3.62 |

| Variant | protein stability index |
| --- | --- |
| CRNCINLQNEAQKRFSFLKYKCLL | 2.57 |
| CRNCINLQNEAQKRLSFLKYKCLL | 2.77 |
| CRNCINLQNEAQKRKSFLKYKCLL | 1.92 |
| CRNCINLQNEAQKRGSFLKYKCLL | 2.37 |
| CRNCINLQNEAQKRTSFLKYKCLL | 2.24 |
| CRNCINLQNEAQKRRSFLKYKCLL | 1.08 |
| CRNCINLQNEAQKRYSFLKYKCLL | 2.04 |
| CRNCINLQNEAQKRDSFLKYKCLL | 2.13 |
| CRNCINLQNEAQKRESFLFYKCLL | 2.54 |
| CRNCINLQNEAQKRESFLQYKCLL | 1.85 |
| CRNCINLQNEAQKRESFLCYKCLL | 3.27 |
| CRNCINLQNEAQKRESFLWYKCLL | 1.01 |
| CRNCINLQNEAQKRESFLPYKCLL | 1.46 |
| CRNCINLQNEAQKRESFLMYKCLL | 2.28 |
| CRNCINLQNEAQKRESFLLYKCLL | 2.69 |
| CRNCINLQNEAQKRESFLRYKCLL | 1.56 |
| CRNCINLQNEAQKRESFLAYKCLL | 1.46 |
| CRNCINLQNEAQKRESFLNYKCLL | 1.63 |
| CRNCINLQNEAQKRESFLIYKCLL | 2.19 |
| CRNCINLQNEAQKRESFLHYKCLL | 1.68 |
| CRNCINLQNEAQKRESFLGYKCLL | 2.2 |
| CRNCINLQNEAQKRESFLTYKCLL | 2.23 |
| CRNCINLQNEAQKRESFLDYKCLL | 1.3 |

| Variant | protein stability index |
| --- | --- |
| CRNCINLQNEAQKRESFLEYKCLL | 1.74 |
| CRNCINLQNEAQKRESFLKYKWLL | 2.01 |
| CRNCINLQNEAQKRESFLKYKILL | 2.13 |
| CRNCINLQNEAQKRESFLKYKVLL | 1.73 |
| CRNCINLQNEAQKRESFLKYKNLL | 1.49 |
| CRNCINLQNEAQKRESFLKYKRLL | 1.3 |
| CRNCINLQNEAQKRESFLKYKGLL | 1.42 |
| CRNCINLQNEAQKRESFLKYKYLL | 1.84 |
| CRNCINLQNEAQKRESFLKYKDLL | 2.46 |
| CRNCINLQNEAQKRESFLKYKPLL | 2.25 |
| CRNCINLQNEAQKRESFLKYKQLL | 2.33 |
| CRNCINLQNEAQKRESFLKYKELL | 2.69 |
| CRNCINLQNEAQKRESFLKYKKLL | 1.87 |
| CRNCINLQNEAQKRESFLKYKHLL | 2.18 |
| CRNCINLQNEAQKRESFLKYKMLL | 1.79 |
| CRNCINLQNEAQKRESFLKYKLLL | 1.76 |
| CRNCINLQNEAQKRESFLKYKSLL | 1.65 |
| CRNCINLQNEAQKRESFLKYKTLL | 1.41 |
| CRNCINLQNEAQKRESFLKYKALL | 1.58 |
| CRNCINLQNEAQKRESFLKWKCLL | 2.46 |
| CRNCINLQNEAQKRESFLKKKCLL | 2.46 |
| CRNCINLQNEAQKRESFLKCKCLL | 3.65 |
| CRNCINLQNEAQKRESFLKRKCLL | 1.83 |
